From patent US20240209086A1 (PETMEDIX, published 2024)

B1: PMX195 (monospecific anti-canine CD3, canine IgG-B effector function deficient Fc) (antibody, V domains shown)
VH: EVQLVESGGDLVKPAGSLRLSCMASGFTFSSYSMSWVRQAPEKGLQLVAGINGDGSTTYYTDAVKGRFTISRDNAKNTVYLQMNNLRVEDSAMYYCAKGAGTGDYWGQGTLVTVSS
VL: SYELTQPPSLNVTLRETAHITCGGDRIGSRYVQWIQQNPGQAPVVVIYKDSNRPTGIPERFSGANSGNTATLTISGALAEDEADYYCQVGDSGNWVFGGGTQLTVL
B2: PMX181 (monospecific anti-canine CD3, canine IgG-B effector function deficient Fc) (antibody, V domains shown)
VH: ELTLQESGPGLVKPSQTLSLTCIVSGGSVTNNYYWTWIRQRPGRGLEWMGYWTGFTNYNPAFQGRISIIANTAKKQLSLQLSSLTTEDTAVYYCARRAIPTYFDYWGQGTLVTVSS
VL: SYVLTQLPSKNVTLKQPAHITCGGDNIGSRSVHWYQQKLGQAPVLIIYYDSSRPTGIPERFSGANSGNTATLTISGALAEDEADYYCQVWDSSASVFGGGTHLTVL
B3: PMX182 (monospecific anti-canine CD3, canine IgG-B effector function deficient Fc) (antibody)
heavy: EVQLVESGGDLVKPGGSLRLSCVTSGFTFSNYHMNWVRQAPGKGLQWVAYINSGGSSTSYADAVKGRFTISRDNAKNTLYLQMNSLRAEDTAMYYCASDWDYCADDTCEGMGYWGHGTSLFVSSASTTAPSVFPLAPSCGSTSGSTVALACLVSGYFPEPVTVSWNSGSLTSGVHTFPSVLQSSGLYSLSSMVTVPSSRWPSETFTCNVAHPASKTKVDKPVPKRENGRVPRPPDCPKCPAPESLGGPSVFIFPPKPKDTLLIARTPEVTCVVVDLGREDPEVQISWFVDGKQMQTAKTQPREEQFNGTYRVVSVLPIGHQDWLKGKQFTCKVNHIGLPSPIERTISKARGQAHQPSVYVLPPSREELSKNTVSLTCLIKDFFPPDIDVEWQSNGQQEPESKYRTTPPQLDEDGSYFLYSKLSVDKSRWQRGDTFICAVMHEALHNHYTQKSLSHSPGK
VL: SYVLTQLPSKNVTLKQPAHITCGGDNIGSKSVHWYQQKLGQAPVLIIYYDSSRPTGIPERFSGANSGNTATLTISGALAEDEADYYCQVWDSSAKAWVFGEGTQLTVL
B4: PMX184 (monospecific anti-canine CD3, canine IgG-B effector function deficient Fc) (antibody, V domains shown)
VH: ELTLQESGPGLVKPSQTLSLTCGVSGGSVTRSHYWNWVRQRPGRGLEWMGYWTGSTNYNPAFQGRISITADTAKNQFSLQLRSMTTEDTAVYFCARETTIPTFFFDYWGQGTLVTVSS
VL: SYVLTQLPSKNVTLKQPAHITCGGDNIGSKSVHWYQQKLGQAPVLIIYYDSSRPTGIPERFSGANSGNTATLTISGALAEDEADYYCQVWDSGAKAWVFGEGTQLTVL
B5: PMX183 (monospecific anti-canine CD3, canine IgG-B effector function deficient Fc) (antibody, V domains shown)
VH: ELTLQESGPGLVKPSQTLSLTCVVSGGSVTNSYYWNWIRQRPGRELEWMGYWTGGTKYNPAFQGRISISADTAKNQFSLQLTSMTTEDTAVYYCARDRDRRVPHAYGYWGQGTLVTVSS
VL: SYVLTQLPSKNVTLKQPAHITCGGDNIGSKSVHWYQQKLGQAPVLIIYYDSSRPTGIPERFSGANSGNTATLTISGALAEDEADYYCQVWDSSAKASVFGGGTHLTVL
B6: PMX197 (monospecific anti-canine CD3, canine IgG-B effector function deficient Fc) (antibody, V domains shown)
VH: ELTLQESGPGLVKPSQTLSLTCLVSGGSVTRSYYWNWIRQRPGRGLEWMGYWTGSTNYNPAFQGRISIIPDTAKNQFSLQLTSMTTDDTAIYFCAREGGRTLGAFADWGQGTLVTVSS
VL: SYVLTQLPSKNVTLKQPAHITCGGDKIGSKNVHWYQQKLGQAPVLIIYYDSSRPTGIPERFSGANSGNTATLTISGALAEDEADYYCQVWDSSAKASVFGGGTHLTVL
B7: PMX185 (monospecific anti-canine CD3, canine IgG-B effector function deficient Fc) (antibody)
heavy: EVQLVESGGDLVKPGGSLRLSCVASGFTFSSYHMSWVRQAPGKGLQWVASINSGGSRTSYVDAVKGRFTISRDNAKKTLYLQMNSLRAEDTAVYYCASGRTGPKLGLGDYGMDSWGHGTSLFVSSASTTAPSVFPLAPSCGSTSGSTVALACLVSGYFPEPVTVSWNSGSLTSGVHTFPSVLQSSGLYSLSSMVTVPSSRWPSETFTCNVAHPASKTKVDKPVPKRENGRVPRPPDCPKCPAPESLGGPSVFIFPPKPKDTLLIARTPEVTCVVVDLGREDPEVQISWFVDGKQMQTAKTQPREEQFNGTYRVVSVLPIGHQDWLKGKQFTCKVNHIGLPSPIERTISKARGQAHQPSVYVLPPSREELSKNTVSLTCLIKDFFPPDIDVEWQSNGQQEPESKYRTTPPQLDEDGSYFLYSKLSVDKSRWQRGDTFICAVMHEALHNHYTQKSLSHSPGK
VL: SYVLTQLPSKNVTLKQPAHITCGGDNIGSKSVHWYQQKLGQAPVMIIYYDSSRPTGIPERFSGANSGNTATLTISGALAEDEADYYCQVWDSSAKAWVFGEGTQLTVL
B8: PMX196 (monospecific anti-canine CD3, canine IgG-B effector function deficient Fc) (antibody, V domains shown)
VH: ELTLQESGPGLVKPSQTLSLTCVVSGGSVTSSYYWNWIRQRPGRGLEWMGYWTGSTIYNPAFQGRISITADTAKNQFSLQLSSMTTEDTAVYFCVRERRMAFGSWGQGTLVIVSS
VL: SYVLTQLPSKSVTLKQPAHITCGGDNIGRKSVHWYQQKLGQAPVLIISFDNNRPTGIPERFSGANSGNTATLTISGALAEDEADYYCQVWDSSAKASVFGGGTHLTVL
B9: PMX198 (monospecific anti-canine CD3, canine IgG-B effector function deficient Fc) (antibody, V domains shown)
VH: EFTLQESGPGLVKPSQTLSLTCIVSGGSVTSSYYWNWIRQRPGRGLEWMGYWTGSTNYNPAFQGRISITPDTAKNQFSLQLSSMTTEDTAVYYCAREGGSSLQAFGNWGQGTLVTVSS
VL: SYVLTQLPSKNVTLKQPAHITCGGDNIGRKSVHWYQQKLGQAPILIIYYDSSRPTGIPERFSGANSGNTATLTISGALAEDEADYYCQVWDSSAKASVFGGGTHLTVL
B10: PMX193 (monospecific anti-canine CD3, canine IgG-B effector function deficient Fc) (antibody, V domains shown)
VH: EVQLVESGGDLVKPGGSLRLSCVASGFTFSTYHMSWVRQAPGKGLQWVAYISSGGSRTNYADAVKGRFTISRDNAKNTLYLQMNSLRAEDAAVFYCARHYGSSLFDYWGQGTLVTVSS
VL: DIVMTQTPLSLSVSPGEPASISCKASQSLLHINGNTYLYWFRQKPGQSPQRLIYKVSNRDPGVPDRFSGSGSGTDFTLRISRVEADDAGVYYCGQGIQDPTFGKGTHLEIK
B11: PMX194 (monospecific anti-canine CD3, canine IgG-B effector function deficient Fc) (antibody, V domains shown)
VH: EVQLVESGGDLVKPGGSLRLSCVASGFTFSNYHMSWVRQAPGKGLQWVAYSNSGRMSTDYADAVKGRFTISRDNAKNTLYLQMNSLRPEDTAVYYCATVIYGLFDYWGQGTLVTVSS
VL: DIVMTQTPLSLSVSPGEPASISCKASQSLLYSNGNTYLYWFRQKPGQSPQRLIYKVSKRDSGVPDRFSGSGSGTDFTLRIRRVEADDAGVYYCGQGTQDPYTFSQGTKLEIK

Biological target: canine CD3 on canine T cells (canine PBMC) (canine, UniProt P27597 22-202)
Sequence (P27597 22-202 limits assumed, chain 1 of 3): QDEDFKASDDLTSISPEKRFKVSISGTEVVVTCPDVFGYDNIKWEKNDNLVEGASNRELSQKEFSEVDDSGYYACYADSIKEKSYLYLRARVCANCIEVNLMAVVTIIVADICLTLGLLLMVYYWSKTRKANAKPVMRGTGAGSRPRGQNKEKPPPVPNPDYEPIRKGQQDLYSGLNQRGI
Sequence (chain, as listed by the source limits assumed, chain 2 of 3): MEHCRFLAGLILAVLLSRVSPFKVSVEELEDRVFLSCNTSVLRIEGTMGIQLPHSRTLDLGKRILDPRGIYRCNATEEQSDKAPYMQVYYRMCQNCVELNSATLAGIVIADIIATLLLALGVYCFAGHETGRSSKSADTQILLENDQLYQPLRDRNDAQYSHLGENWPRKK
Sequence (chain, as listed by the source limits assumed, chain 3 of 3): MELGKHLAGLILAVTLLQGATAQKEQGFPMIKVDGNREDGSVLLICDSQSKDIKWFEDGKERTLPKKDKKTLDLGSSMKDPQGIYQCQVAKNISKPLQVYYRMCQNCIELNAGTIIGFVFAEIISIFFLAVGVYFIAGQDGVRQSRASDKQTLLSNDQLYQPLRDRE
Test: cell-based or functional assay

Binder | CD25 Activation, Day 6, IS | CD25 Activation, Day 6, PB | CD25 Activation, Day 9, IS | CD25 Activation, Day 9, PB | IFNy Concentration pg/ml, Day 6, IS | IFNy Concentration pg/ml, Day 9, IS | IFNy Concentration pg/ml, Day 9, PB | Ki67 Proliferation, Day 6, IS | Ki67 Proliferation, Day 6, PB | Ki67 Proliferation, Day 9, IS | Ki67 Proliferation, Day 9, PB
B1 | 10.4 | 16.8 | 7.58 | 14.7 | 63.9 pg/mL | 208 pg/mL | 627 pg/mL | 2.94 | 0.43 | 2.33 | 0.67
B2 | 10.6 | 5.68 | 9.09 | 23.9 | 33.1 pg/mL | 118 pg/mL | 1690 pg/mL | 2.15 | 0.55 | 2.69 | 0.7
B3 | 7.88 | 5.89 | 14.6 | 21.4 | 50.2 pg/mL | 1340 pg/mL | 1470 pg/mL | 2.01 | 0.7 | 1.72 | 1.55
B4 | 10.4 | 28.8 | 12.3 | 28.2 | 74.8 pg/mL | 322 pg/mL | 3290 pg/mL | 2.42 | 1.47 | 1.64 | 0.75
B5 | 13.3 | 13.6 | 10.1 | 13.3 | 63.7 pg/mL | 153 pg/mL | 145 pg/mL | 1.61 | 0.36 | 1.99 | 0.48
B6 | 10.5 | 23.3 | 9.24 | 14 | 58 pg/mL | 307 pg/mL | 2340 pg/mL | 1.43 | 0.67 | 3.21 | 0
B7 | 14.7 | 11.9 | 10.3 | 13.9 | 86.7 pg/mL | 217 pg/mL | 166 pg/mL | 0.93 | 0.85 | 2.65 | 0.39
B8 | 10.4 | 23 | 6.6 | 17.1 | 34.8 pg/mL | 160 pg/mL | 2080 pg/mL | 0.92 | 1.41 | 0.94 | 0
B9 | 11.3 | 26.8 | 10.4 | 25.5 | 82.8 pg/mL | 191 pg/mL | 2790 pg/mL | 0.87 | 0.61 | 4.37 | 0
B10 | 8.3 | 11.1 | 12.6 | 16.1 | 52.6 pg/mL | 544 pg/mL | 401 pg/mL | 0.64 | 0.11 | 1.53 | 0.18
B11 | 13 | 17.3 | 7.96 | 17.1 | 133 pg/mL | 170 pg/mL | 568 pg/mL | 1.46 | 0.21 | 1.49 | 1.11
